{"source": "paper PMC2064468", "about": "(The Journal of Cell Biology, 2007)", "target": "T1, FtsY (bacterial SRP receptor), wild type, as used in the GTPase assays (Escherichia coli, UniProt P10121 1-497)", "T1 sequence (looked up)": "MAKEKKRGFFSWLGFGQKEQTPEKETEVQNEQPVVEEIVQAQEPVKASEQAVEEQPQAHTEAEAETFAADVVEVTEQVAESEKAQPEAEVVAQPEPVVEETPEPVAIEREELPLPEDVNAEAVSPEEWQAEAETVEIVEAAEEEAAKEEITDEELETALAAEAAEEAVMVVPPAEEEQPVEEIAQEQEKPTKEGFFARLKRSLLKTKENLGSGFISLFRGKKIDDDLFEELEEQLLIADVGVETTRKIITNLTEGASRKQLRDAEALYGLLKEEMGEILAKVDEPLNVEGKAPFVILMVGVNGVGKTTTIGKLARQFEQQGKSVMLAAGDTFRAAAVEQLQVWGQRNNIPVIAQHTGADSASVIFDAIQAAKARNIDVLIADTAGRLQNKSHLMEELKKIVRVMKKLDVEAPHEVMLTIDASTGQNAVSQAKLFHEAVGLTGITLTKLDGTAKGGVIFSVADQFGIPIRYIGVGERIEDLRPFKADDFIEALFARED", "assay": "GTPase inhibition"}
{"binder": "SRP with Ffh A144W (bound to the 4.5S SRP RNA) (natural protein, Escherichia coli, UniProt P0AGD7 1-453, looked up) MFDNLTDRLSRTLRNISGRGRLTEDNVKDTLREVRMALLEADVALPVVREFINRVKEKAVGHEVNKSLTPGQEFVKIVRNELVAAMGEENQTLNLAAQPPAVVLMAGLQGAGKTTSVGKLGKFLREKHKKKVLVVSADVYRPAWIKQLETLAEQVGVDFFPSDVGQKPVDIVNAALKEAKLKFYDVLLVDTAGRLHVDEAMMDEIKQVHASINPVETLFVVDAMTGQDAANTAKAFNEALPLTGVVLTKVDGDARGGAALSIRHITGKPIKFLGVGEKTEALEPFHPDRIASRILGMGDVLSLIEDIESKVDRAQAEKLASKLKKGDGFDLNDFLEQLRQMKNMGGMASLMGKLPGMGQIPDNVKSQMDDKVLVRMEAIINSMTMKERAKPEIIKGSRKRRIAAGCGMQVQDVNRLLKQFDDMQRMMKKMKKGGMAKMMRSMKGMMPPGFPGR", "values": [{"measurement": "Ki", "value": 260, "unit": "nM"}]}
